Patent US20180326022

Legend:
[1] = target: detyrosinated microtubules (human cardiomyocytes)
[2] = target: detyrosinated microtubules (rat cardiomyocytes)

B1: human tubulin tyrosine ligase (TTL) (protein)
chain: MYTFVVRDENSSVYAEVSRLLLATGHWKRLRRDNPRFNLMLGERNRLPFGRLGHEPGLVQLVNYYRGADKLCRKASLVKLIKTSPELAESCTWFPESYVIYPTNLKTPVAPAQNGIQPPISNSRTDEREFFLASYNRKKEDGEGNVWIAKSSAGAKGEGILISSEASELLDFIDNQGQVHVIQKYLEHPLLLEPGHRKFDIRSWVLVDHQYNIYLYREGVLRTASEPYHVDNFQDKTCHLTNHCIQKEYSKNYGKYEEGNEMFFKEFNQYLTSALNITLESSILLQIKHIIRNCLLSVEPAISTKHLPYQSFQLFGFDFMVDEELKVWLIEVNGAPACAQKLYAELCQGIVDIAISSVFPPPDVEQPQTQPAAFIKL
- density of dTyr-MTs and dTyr-MT/total MT ratio (immunofluorescence) after AdV-TTL for 48 hrs [1]: decreased the density of dTyr-MTs and the proportion of total MTs that were detyrosinated
- amount of polymerized, detyrosinated MTs (immunofluorescence and immunoblot) after AdV-TTL [2]: 3-4 fold reduction in the amount of polymerized, detyrosinated MTs
- detyr Tubulin, western blotting relative to null, TTL (0.01) (relative to null) [2]: 0.74
- detyr Tubulin, western blotting relative to null, TTL (0.1) (relative to null) [2]: 0.28
- tyr Tubulin, western blotting relative to null, TTL (0.01) (relative to null) [2]: 2.63
- tyr Tubulin, western blotting relative to null, TTL (0.1) (relative to null) [2]: 3.32
